From patent US20210040201A1 (Innovent, published 2021)
Substitutions are numbered along the chain they refer to. Like-named read-outs stand apart in the source and are kept apart here.

T1: Human TIGIT expressed on the surface of cells (human, UniProt Q495A1 22-244)
T1 sequence: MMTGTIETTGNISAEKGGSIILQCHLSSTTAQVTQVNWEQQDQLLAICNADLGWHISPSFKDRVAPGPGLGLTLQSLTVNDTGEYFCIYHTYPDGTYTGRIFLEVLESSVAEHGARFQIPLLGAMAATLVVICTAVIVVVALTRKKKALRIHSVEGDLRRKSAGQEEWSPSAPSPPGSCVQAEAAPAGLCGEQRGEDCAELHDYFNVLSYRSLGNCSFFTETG

T2: Mouse TIGIT-his (ACRO, TIT-M52E6) (mouse, UniProt P86176 26-143, limits assumed)
T2 construct: Bought protein
T2 sequence (looked up): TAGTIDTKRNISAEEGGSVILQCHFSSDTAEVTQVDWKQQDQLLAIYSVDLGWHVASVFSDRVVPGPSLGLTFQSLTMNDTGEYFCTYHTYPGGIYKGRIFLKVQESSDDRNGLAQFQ

B1: ADI-27243 (antibody, human IgG4 S228P, kappa, F234A L235A, V domains shown)
VH: QLQLQESGPGLVKPSETLSLTCTVSGGSISSSRYYWGWIRQPPGKGLEWIGSIYYSGSTYYNPSLKSRVTISVDTSKNQFSLKLSSVTAADTAVYYCARDGLYHTPEYFQHWGQGTLVTVSS
VL: EIVLTQSPATLSLSPGERATLSCRASQSVSSYLAWYQQKPGQAPRLLIYDASNRATGIPARFSGSGSGTDFTLTISSLEPEDFAVYYCQQRFAFPYTFGGGTKVEIKR
B2: ADI-30302 (antibody, human IgG4 S228P, kappa, F234A L235A, V domains shown)
VH: B1 VH with S30G, R33Q, Y55R, S58G
VL: B1 VL
B3: ADI-30336 (antibody, human IgG4 S228P, kappa, F234A L235A, V domains shown)
VH: B1 VH
VL: B1 VL with F94H
notes: Intact antibody, expressed in yeast and also in CHO cells (the assay field says which)
B4: ADI-30293 (antibody, human IgG4 S228P, kappa, F234A L235A, V domains shown)
VH: EVQLVESGGGLVQPGGSLRLSCAASGFTFSSYSMNWVRQAPGKGLEWVSYISSSGTINYADSVKGRFTISRDNAKNSLYLQMNSLRAEDTAVYYCARHRIADSPSRAFDIWGQGTMVTVSS
VL: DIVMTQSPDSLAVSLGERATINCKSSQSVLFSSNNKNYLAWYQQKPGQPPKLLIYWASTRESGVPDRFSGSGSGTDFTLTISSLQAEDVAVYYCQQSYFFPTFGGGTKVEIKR
B5: ADI-30296 (antibody, human IgG4 S228P, kappa, F234A L235A, V domains shown)
VH: B4 VH with F29I, S30G, S31G, G55S, N58H, A101G, D102R
VL: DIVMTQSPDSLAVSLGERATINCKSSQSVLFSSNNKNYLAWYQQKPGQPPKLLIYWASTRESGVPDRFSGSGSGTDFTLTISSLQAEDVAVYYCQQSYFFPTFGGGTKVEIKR
B6: ADI-30272 (antibody, human IgG4 S228P, kappa, F234A L235A, V domains shown)
VH: QVQLVQSGAEVKKPGASVKVSCKASGYTFTEYYMHWVRQAPGQGLEWMGIISPSAGSTSYAQKFQGRVTMTRDTSTSTVYMELSSLRSEDTAVYYCARDHDIAAAGRLADYWGQGTLVTVSS
VL: DIQMTQSPSSVSASVGDRVTITCRASQGISSWLAWYQQKPGKAPKLLISAASSLQSGVPSRFSGSGSGTDFTLTISSLQPEDFATYYCQQAVILPITFGGGTKVEIKR
B7: ADI-27297 (antibody, human IgG4 S228P, kappa, F234A L235A, V domains shown)
VH: B6 VH with E31S, S52N, A55G
VL: B6 VL
B8: ADI-30278 (antibody, human IgG4 S228P, kappa, F234A L235A, V domains shown)
VH: B6 VH with S59K, A103R, A104L
VL: B6 VL
notes: as for B3
B9: ADI-30306 (antibody, human IgG4 S228P, kappa, F234A L235A, V domains shown)
VH: QLQLQESGPGLVKPSETLSLTCTVSGGSISSSLYYWGWIRQPPGKGLEWIGSIYYSGSTFYNPSFKSRVTISVDTSKNQFSLKLSSVTAADTAVYYCAREAGRGTTGLLFDYWGQGTLVTVSS
VL: DIQMTQSPSTLSASVGDRVTITCRASQSISSWLAWYQQKPGKAPKLLIYKASSLESGVPSRFSGSGSGTEFTLTISSLQPDDFATYYCQQYGILPRTFGGGTKVEIKR
notes: as for B3
B10: ADI-30311 (antibody, human IgG4 S228P, kappa, F234A L235A, V domains shown)
VH: B9 VH with S30A, L33V, F60W, F65L, G104T, T105G
VL: B9 VL
B11: 10A7 (anti-human TIGIT reference antibody from Genentech) (antibody, V domains shown)
VH: EVQLVESGGGLTQPGKSLKLSCEASGFTFSSFTMHWVRQSPGKGLEWVAFIRSGSGIVFYADAVRGRFTISRDNAKNLLFLQMNDLKSEDTAMYYCARRPLGHNTFDSWGQGTLVTVSS
VL: DIVMTQSPSSLAVSPGEKVTMTCKSSQSLYYSGVKENLLAWYQQKPGQSPKLLIYYASIRFTGVPDRFTGSGSGTDYTLTITSVQAEDMGQYFCQQGINNPLTFGDGTKLEIKR
B12: ADI-27238 (antibody, human IgG4 S228P, kappa, F234A L235A, V domains shown)
VH: QVQLVQSGAEVKKPGASVKVSCKASGYTFTSYYMSWVRQAPGQGLEWMGIINPSGGSTSYAQKFQGRVTMTRDTSTSTVYMELSSLRSEDTAVYYCARARYPSSWPYGMDVWGQGTTVTVSS
VL: DIQMTQSPSSLSASVGDRVTITCRASQSINSYLNWYQQKPGKAPKLLIYAASSLQSGVPSRFSGSGSGTDFTLTISSLQPEDFATYYCQQSLLTPFTFGGGTKVEIKR
B13: ADI-30267 (antibody, human IgG4 S228P, kappa, F234A L235A, V domains shown)
VH: B12 VH with T30R, N52D, S57R, Y60F, S103E
VL: B12 VL
B14: ADI-30268 (antibody, human IgG4 S228P, kappa, F234A L235A, V domains shown)
VH: B12 VH with T30G, S35G, N52D, S57R, Q62R, Y101T
VL: B12 VL
B15: ADI-30286 (antibody, human IgG4 S228P, kappa, F234A L235A, V domains shown)
VH: EVQLLESGGGLVQPGGSLRLSCAASGFTFGPYGMSWVRQAPGKGLEWVSAISGSGASTWYADSVKGRFTISRDNSKNTLYLQMNSLRAEDTAVYYCAKDPGTHYSGYYYIWRYWGQGTLVTVSS
VL: EIVMTQSPATLSVSPGERATLSCRASQSVSSNLAWYQQKPGQAPRLLIYSASTRATGIPARFSGSGSGTEFTLTISSLQSEDFAVYYCQQYVPHPPFTFGGGTKVEIKR
B16: ADI-30288 (antibody, human IgG4 S228P, kappa, F234A L235A, V domains shown)
VH: B15 VH with Y60H, H103D, Y104S, S105T
VL: B15 VL

Key:
[1] = biological target: T1, Human TIGIT expressed on the surface of …; assay: cell-based or functional assay
[2] = biological target: T1, Human TIGIT expressed on the surface of …; assay: cell-based or functional assay; remark: listed apart in the source
[3] = biological target: T2, Mouse TIGIT-his (ACRO, TIT-M52E6); assay: BLI (ForteBio), CHO-expressed antibody loaded on AHQ sensor
Method: The sensor with loaded antibodies was exposed to 100 nM TIGIT-his antigens until to a plateau, and then transferred to an assay buffer for dissociation for at least 2 min to measure the dissociation rate. Kinetic analysis was performed using a 1:1 binding model.

[4] = biological target: T1, Human TIGIT expressed on the surface of …; assay: flow cytometry on CHOS cells expressing human TIGIT; reference antibody
[5] = biological target: T1, Human TIGIT expressed on the surface of …; assay: flow cytometry on CHO cells overexpressing human TIGIT; reference antibody in the run with CHO-expressed antibodies
[6] = biological target: T1, Human TIGIT expressed on the surface of …; assay: flow cytometry competition against 50 nM human CD155-mouse IgG2a Fc on CHOS cells expressing human TIGIT; positive control
[7] = biological target: T1, Human TIGIT expressed on the surface of …; assay: as above; remark: listed apart in the source

Binder	EC50, MOA-based assay (luciferase reporter under IL2 promoter), yeast-expressed antibody [1]	EC50, MOA-based assay (luciferase reporter under IL2 promoter), CHO-expressed antibody [2]	also measured
B1	297 nM	–	–
B2	0.983 nM	–	–
B3	3.33 nM	1.27 nM	binding result [3]: no binding (tested: 100 nM TIGIT-his)
B4	1.56 nM	1.62 nM	–
B5	1.09 nM	–	–
B6	1.49 nM	–	–
B7	~25100 nM	–	–
B8	0.523 nM	0.186 nM	binding result [3]: no binding (tested: 100 nM TIGIT-his)
B9	–	–	binding result [3]: no binding (tested: 100 nM TIGIT-his)
B10	1.82 nM	–	–
B11	–	–	EC50 [4]: 0.269 nM; EC50 [5]: 0.195 nM; IC50 [6]: 0.325 nM; IC50 [7]: 0.741 nM; EC50, MOA-based assay (luciferase reporter under IL2 promoter) [1]: ~77.8 nM
B12	68.7 nM	–	–
B13	2.06 nM	–	–
B14	1.22 nM	0.506 nM	–
B15	–	0.396 nM	–
B16	–	0.384 nM	–
